The values that follow come from US20080267971A1 (published 2008).

Assay [1] addresses T1, human Angiopoietin-1 (human, UniProt Q15389 20-498, limits assumed).
T1 construct: Bought recombinant protein (R&D Systems 293-AN-025/CF) or supernatant of transfected 293F cells; also called Ang-1; recombinant Ang-1
T1 sequence: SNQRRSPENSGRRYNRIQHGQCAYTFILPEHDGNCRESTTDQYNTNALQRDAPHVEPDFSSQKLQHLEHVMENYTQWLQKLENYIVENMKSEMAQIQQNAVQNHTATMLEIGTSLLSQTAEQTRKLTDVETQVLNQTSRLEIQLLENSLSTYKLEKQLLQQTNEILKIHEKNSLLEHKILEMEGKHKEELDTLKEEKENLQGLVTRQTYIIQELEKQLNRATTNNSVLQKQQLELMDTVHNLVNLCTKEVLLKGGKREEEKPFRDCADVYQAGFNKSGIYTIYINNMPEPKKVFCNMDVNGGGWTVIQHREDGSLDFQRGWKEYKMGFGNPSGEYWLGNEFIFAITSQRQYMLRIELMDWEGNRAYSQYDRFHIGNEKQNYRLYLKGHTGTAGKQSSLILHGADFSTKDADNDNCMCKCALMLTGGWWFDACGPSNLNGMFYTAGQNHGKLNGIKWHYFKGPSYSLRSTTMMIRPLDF
The assay is described as follows: Biacore, mAb captured.

Assay [2] has as its target T2, human Angiopoietin-2 (human, UniProt O15123 19-496).
T2 construct: Mostly bought recombinant protein (R&D Systems 623-AM/CF, 623-AN; biotinylated BT623) or supernatant of transfected 293F cells; also called Ang-2; rhAng-2
T2 sequence: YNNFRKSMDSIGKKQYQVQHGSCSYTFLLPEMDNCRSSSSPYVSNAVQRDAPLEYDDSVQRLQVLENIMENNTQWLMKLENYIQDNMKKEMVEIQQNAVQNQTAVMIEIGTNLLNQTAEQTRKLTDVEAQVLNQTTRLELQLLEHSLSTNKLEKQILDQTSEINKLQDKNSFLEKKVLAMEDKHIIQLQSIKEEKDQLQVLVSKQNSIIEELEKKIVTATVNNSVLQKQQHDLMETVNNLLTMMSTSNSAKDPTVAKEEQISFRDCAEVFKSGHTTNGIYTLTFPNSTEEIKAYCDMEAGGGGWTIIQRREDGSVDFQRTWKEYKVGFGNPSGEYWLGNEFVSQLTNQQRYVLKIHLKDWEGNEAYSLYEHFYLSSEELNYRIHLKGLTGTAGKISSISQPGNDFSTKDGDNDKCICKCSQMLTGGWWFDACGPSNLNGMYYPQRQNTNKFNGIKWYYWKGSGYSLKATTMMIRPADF
Briefly: high resolution Biacore, mAb immobilized, 1st experiment. On the procedure: (§1) The mAb was then immobilized on flow cells 1-3 (CM5 Biacore chip) using routine amine coupling, leaving flow cell 4 as the reference flow cell.
(§2) The antibody surfaces were regenerated with a 6-second pulse of 15 mM NaOH after each injection cycle.
(§3) The sample injections alternated with three blank injection cycles. Each surface was regenerated with a 6-second pulse of 15 mM NaOH after each long off-rate injection cycle.
A general note: Surface plasmon resonance follows binding to a sensor surface in real time, without labels.

For assay [3], the target named is T2, human Angiopoietin-2. The assay is described as follows: high resolution Biacore, mAb immobilized, 2nd experiment. The method, then: as §1, §2, §3
Assay [4] addresses T2, human Angiopoietin-2. Briefly: competition ELISA: binding of recombinant human Ang-2 to coated human Tie2/Fc, mAb 3.19.3 titrated, bound Ang-2 detected with polyclonal anti-Ang-2. On the procedure: (§4) For this purpose, an ELISA plate was coated with 4 μg/ml of hTie2/Fc (R&D Systems, Inc.) at 100 μl/well, and the wells were blocked as routine at 4° C. overnight.
(§5) Each concentration of the mAb was tested in triplicate. […] OD650 was determined 30 min after the HRP substrate was added.
(In general: ELISA stands for enzyme-linked immunosorbent assay.)

Assay [5] addresses T2, human Angiopoietin-2. The assay is described as follows: KinExA, KD-controlled titration; KinExA, KD-controlled titration, 5 days at ~24 C. In general terms: In KinExA the mixture passes briefly over coated beads that capture the unbound partner.
Method: For this purpose, a KinExA 3000 instrument was utilized. […] The beads were then centrifuged and washed once with blocking buffer (1×PBS, 10 mg/ml BSA), centrifuged again, and then incubated in blocking buffer for one hour at 24° C. After blocking, the beads were diluted in approximately 30 mL of HBS buffer (0.01 M Hepes, 0.15 M NaCl, pH 7.4) in a standard KinExA bead reservoir vial and placed on the instrument.
The KinExA instrument method used for the analysis of these solutions consisted of a bead packing step in which the PMMA beads were packed into a glass capillary, and the equilibrated solutions were flowed through the bead column at 0.25 mL/min for 6 min (1.5 mL) in duplicate. […] The fluorescence emission from the bead pack was measured at 670 nm with excitation at 620 nm. The resulting fluorescence measurements were converted into “% free nab binding site” versus total antigen concentration using the accompanying KinExA software package (version 1.0.3, Sapidyne, Inc.). The resulting KD-controlled titration curve was fit with the KinExA software to a 1:1 equilibrium isotherm with a drift correction factor included.
Assay [6] deals with T3, mouse Angiopoietin-2 (mouse, UniProt O35608 19-496).
T3 construct: Used as conditioned medium of transfectants; also called mAng-2; mouse Ang-2
T3 sequence: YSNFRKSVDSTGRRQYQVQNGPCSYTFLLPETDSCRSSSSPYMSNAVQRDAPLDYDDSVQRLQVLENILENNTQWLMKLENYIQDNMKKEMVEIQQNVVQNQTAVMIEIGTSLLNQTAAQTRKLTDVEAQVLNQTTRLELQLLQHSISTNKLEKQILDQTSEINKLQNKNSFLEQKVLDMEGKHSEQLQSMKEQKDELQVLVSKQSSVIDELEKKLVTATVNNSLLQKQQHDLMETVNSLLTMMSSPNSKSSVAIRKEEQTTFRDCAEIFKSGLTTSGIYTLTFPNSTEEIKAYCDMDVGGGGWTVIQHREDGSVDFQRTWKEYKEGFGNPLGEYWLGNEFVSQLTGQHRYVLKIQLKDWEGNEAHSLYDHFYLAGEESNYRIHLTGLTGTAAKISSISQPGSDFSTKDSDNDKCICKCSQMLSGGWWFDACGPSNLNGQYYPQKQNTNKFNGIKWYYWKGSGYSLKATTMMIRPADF
Briefly: competition ELISA: binding of mouse Ang-2 (culture supernatant) to coated human Tie2/Fc, mAb 3.19.3 titrated, bound Ang-2 detected with polyclonal anti-Ang-2. The method, then:
as §4, §5

In assay [7] the target is T2, human Angiopoietin-2. Briefly: high resolution Biacore, 2nd experiment; kd held constant (*). The method, then:
as §1, §2, §3

Assay [8] has as its target T2, human Angiopoietin-2. The assay is described as follows: FACS: inhibition of Ang-2 binding to HEK293F/Tie2 cells. On the procedure: Cell suspension of 4 million cells/mL in FACS Buffer were prepared, and then aliquoted to a 96-well polypropylene plate with 50 ul per well. […] Cells were washed by centrifuging the plate at 1,200 rpm for 5 minutes, removing the supernatant by aspirating, and resuspending the cells with 200 ul per well of FACS Buffer. Washing procedures were repeated twice. The cells were then suspended with 100 ul of mouse Anti-6×-Histidine antibody diluted to 2 ug/ml in FACS Buffer, and incubated at room temperature for 30 minutes. After washing, the cells were suspended in 100 ul of PE-conjugated goat anti-mouse-IgG, which was diluted 1:100 in FACS Buffer, for incubation at room temperature for 30 minutes. The volume of the samples were brought to 300 ul with FACS Buffer, and measured with FACS Calibur.

B1: mAb 3.3.2 (antibody, V domains shown)
VH: EVQLVESGGGLVQPGGSLRLSCAVSGFTFSSYWMSWVRQAPGKGLEWVANIKQDGSEKYYVDSVKGRFTISRDNAKNSLYLQMNSLRAEDTAVYYCARDQGIAVAGPFDYWGQGTLVTVSS
VL: EIVMTQSPATLSVSPGERATLSCRASQTVSSDLAWYQQKPGQAPRLLIYGASIRATGIPARFSGSGSGTEFTLTISSLQSEDFAVYSCQQYYNWWTFGQGTKVEIKR
notes: Human hybridoma IgG (XenoMouse); also called 3.3.1; x3.3
Consider B1, for which, in assay [1], the binding result was “no binding (tested: 87.4 nM Ang-1)”.

B2: mAb 3.19.3 (antibody, V domains shown)
VH: QVQLVESGGGVVQPGRSLRLSCAASGFTFTNYGMHWGRQAPGKGLEWVAVISHDGNNKYYVDSVKGRFTISRDNSKNTLYLQMNSLRAEDTAVYYCAREGIDFWSGLNWFDPWGQGTLVTVSS
VL: EIVLTQSPGTLSLSPGERATLSCRASQSITGSYLAWYQQKPGQAPRLLICGASSWATGIPDRFSGSGSGTDFTLTISRLEPEDFAVYYCQQYSSSPITFGQGTRLEIKR
notes: Human hybridoma IgG (XenoMouse); also called x3.19
One may read the Kd as a measure of binding affinity in units of concentration. One may read the kon as a measure of how fast the partners come together. The low end stands for slow association, the high end for fast association. For orientation: koff means a measure of how fast the partners let go of each other. Read a low koff as slow dissociation. Usually EC50 stands for the concentration at which the effect is half-maximal. Read a high EC50 as a less potent agent. As to B2, the Kd was determined as 0.0053 nM in assay [2], 0.0056 nM in assay [3] and 0.0864 nM in assay [5]. In addition, the kon worked out at 189000 M⁻¹ s⁻¹ in assay [2] and 178000 M⁻¹ s⁻¹ in assay [3]. In addition, the entries for the “IC50 (read off the curve)” value in assay [4] and in assay [6] were around 0.8 µg/mL and around 2 µg/mL, respectively. For the same molecule, the koff in assay [7] was around 1e-06 s⁻¹. The molecule further showed an EC50 in assay [8] of 0.731 nM.
